Data published in article PMC2975657.
Where “and” joins values, the source holds several entries; their conditions need not be identical. Identical values can stand only once.

Experiments:
[1] = biological target: Lethal factor LFN (Bacillus anthracis) (UniProt P15917); details: cited from earlier work
[2] = biological target: PA7(LFN)3 complex (heptameric PA oligomer with three LFN) (Bacillus anthracis)
[3] = biological target: PA8(LFN)4 complex (octameric PA oligomer with four LFN) (Bacillus anthracis)
[4] = biological target: PA7(LFN)3 complex (heptameric PA oligomer with three LFN) (Bacillus anthracis); assay: native MS
[5] = biological target: PA8(LFN)4 complex (octameric PA oligomer with four LFN) (Bacillus anthracis); assay: native MS
[6] = biological target: protective antigen, proteolytically activated 63-kDa portion (PA63) (Bacillus anthracis); assay: negative-stain electron microscopy
[7] = biological target: protective antigen, proteolytically activated 63-kDa portion (PA63) (Bacillus anthracis); assay: native MS

In the case of “Protective antigen (from UniProt P13423)”, the Kd [1] is listed as 1 nM.
Substance “soluble monomeric ANTXR2 extracellular domain (msANTXR2), capillary morphogenesis protein 2 residues 40-217 (from UniProt P58335 40-217) (receptor)” has a pH midpoint of the prechannel-to-channel transition, CD signal at 222 nm, 37°C [2] of 5.8 pH, a pH midpoint of the prechannel-to-channel transition, CD signal at 222 nm, 37°C [3] of 5.8 pH and a stoichiometry N (msANTXR2 per PA7(LFN)3 complex) [4] of 7. For the same substance, the stoichiometry N (msANTXR2 per PA8(LFN)4 complex) [5] was 8.
In the case of “protective antigen, proteolytically activated 63-kDa portion (PA63) (domain or fragment)”, the stoichiometry N (PA63 per oligomer) [6] is reported as 7 and 8, the stoichiometry N [7] is reported as 4 and 2 and the stoichiometry N (PA63 per oligomer) [7] is reported as 8 and 7.
For “LF's PA binding domain (LFN, the first 263 residues of LF) (domain or fragment)”, the stoichiometry N (LFN per PA2 intermediate) [7] was 1, the stoichiometry N (LFN per PA4 intermediate) [7] was 2 and the stoichiometry N (LFN per PA7 oligomer) [7] was 3. It also gave a stoichiometry N (LFN per PA8 oligomer) [7] of 4.
